Test results reported in publication PMC9196870, “Crystal Structure of an Intramolecular Mesaconyl-Coenzyme A Transferase From the 3-Hydroxypropionic Acid Cycle of Roseiflexus castenholzii” (Frontiers in Microbiology, 2022).

Molecular target: the molecule itself
Test: SEC; gel filtration, Superdex 200 10/300 GL, 25 mM Tris-Cl pH 8.0, 150 mM NaCl, 0.5 mL/min

B1: Mesaconyl-CoA C1-C4 CoA transferase (MCT) from Roseiflexus castenholzii (enzyme)
chain: MNGILSGMRIVEGSAFVAAPLGGMTLAQLGADVIRFDPIGGGLDYKRWPVTLDGKHSLFWAGLNKGKRSIAIDIRHPRGQELLTQLICAPGDEAGLFITNFPARGWLSYEALKAHRADLIMVNLLGRRDGGSEVDYTVNPQLGLPFMTGPFTSPEVVNHVLPAWDIVTGQMIALGLLAAERHRRRTGEGQLVKLALKDVGLAMIGHLGMIAEVMINDADRPKQGNYLYGAFGRDFETLDGKRVMVVGLTDLQWKALGKATGLTDAFNALGARLGLDMNDEGNRFRARREIAALLEPWFHARTFAEVRRVFEEHRVTWGPYRTVREAIAQDPDCSTENPMFTMVEQPGIGTYLMPASPLDFSRMPRLPAQRAPRLGEHTDEILLEVLGLSDGEVGKLHDEGIVAGPEEE
stoichiometry N: 2
